Data on four molecules can be found in EP4806914A1.

Experiment [1] concerns the target AAV9 full capsid (adeno-associated virus serotype 9 (AAV9)). Nature of the experiment: ELISA, 0.1 ug AAV9 coated on Maxisorp plate, scFv detected with HRP-labeled anti-His-Tag antibody, A450-A650; reference: AAV9 empty capsid sample. For orientation: In an ELISA, binding on a coated surface is turned into a signal by an enzyme label.
The target of experiment [2] is AAV9 empty capsid (adeno-associated virus serotype 9 (AAV9)). Nature of the experiment: ELISA, 0.1 ug AAV9 coated on Maxisorp plate, scFv detected with HRP-labeled anti-His-Tag antibody, A450-A650; reference: blank (BSA).

B1: fourth anti-AAV-scFv [4] (scFv)
scFv: QSLEESGGDLVKPGASLTLTCTASGFSFSSSAYMCWVRQAPGKGLEWIGCMHTISSVDTYYASWAKGRFAISKASSTTVTLQMTSLTAADTATYFCARDDRNGYGYPYSFDIWGPGTLVTVTSGGGGSGGGGSGGGGSELDLTQTAASVEAAVGGTITIKCQASQTISSYLAWYQQKPGQPPKLLIYRASTLASGVSSRFKGSGSGTEYTLTISDLECADAATYYCLTYYGNSHNFGGGTEVVIKGSAAAGGGSEQKLISEEDLGGGSHHHHHH
With B1, the IF/IE (ratio of ELISA absorbance for the full capsid sample to that for the empty capsid sample) in experiment [1] was determined as 7.17. In addition, the IE/IB (ratio of ELISA absorbance for the empty capsid sample to that for the blank (BSA)) in experiment [2] amounted to 3.09.

B2: second anti-AAV-scFv [2] (scFv)
scFv: QSLEESGGDLVKPGASLTLTCTASGFSFSSNYWMFWVRQAPGKGLEWIAHIYGGSSGSTYYASWAKGRFTISKTSSTTVTLQMTSLTAADTATYFCATVDNGYSDLKLWGPGTLVTVTSGGGGSGGGGSGGGGSELVLTQTADSVEAGVGGTVTIKCQASQSIRNWLSWYQQKPGQPPKLLISRASTLASGVPSRFSGSGSGTEFTLTISDLECDDGATYYCQSSFYADSGEPAFGGGTEVDIKRSAAAGGGSEQKLISEEDLGGGSHHHHHH
Turning to B2, the IF/IE (ratio of ELISA absorbance for the full capsid sample to that for the empty capsid sample) in experiment [1] turned out to be 8.23.

B3: third anti-AAV-scFv [3] (scFv)
scFv: QSVEESGGDLVKPGASLTLTCTASGIDFSSGYDMCWVRQAPGKGLEWIGCIYTGGDSAWYASWAKGRFTISKTSSTTVTLQMTSLTGADTATYFCANDLDSGTVSIWGPGTLVTVTSGGGGSGGGGSGGGGSELVLTQTAASVSEPVGGTVTIKCQASQSISSWLSWYQQKPGQPPKLLIYQASKLASGVPSRFKGSGSGTQFTLTISDVVCDDAATYYCAGWTSSTTDGTAFGGGTEVVITGSAAAGGGSEQKLISEEDLGGGSHHHHHH
Turning to B3, the IF/IE (ratio of ELISA absorbance for the full capsid sample to that for the empty capsid sample) in experiment [1] was found to be 6.11. Besides, the IE/IB (ratio of ELISA absorbance for the empty capsid sample to that for the blank (BSA)) in experiment [2] came to 2.22.

B4: first anti-AAV-scFv [1] (scFv)
scFv: QSLEESGGGLVKPGASLTLTCTASGFSFSSYGISWFRQAPGKGLEWIGTIYGGSSGSTYYASWAKGRFTISKTSSTTMTLQMASLTAADTATYFCARDRVGGNGYADLWGPGTLVTVTSGGGGSGGGGSGGGGSELVMTQTAASVEAAVGGTVTIKCQASQSISSYLAWYQQKPGQRPKLLIYRASTLASGVSSRFKGSGSGTEYTLTISDLECDDAATYYCQSHYDIRNYGVAFGGGTEVDIKRSAAAGGGSEQKLISEEDLGGGSHHHHHH
Turning to B4, in experiment [1], the IF/IE (ratio of ELISA absorbance for the full capsid sample to that for the empty capsid sample) is 6.54. For the same molecule, the IE/IB (ratio of ELISA absorbance for the empty capsid sample to that for the blank (BSA)) in experiment [2] amounted to 1.5.
